Data: the supplement of paper PMC11316812
± gives the standard deviation of the averaged measurements.

Legend:
hTERT-HMEC = assay: percentage of EdU-negative (G0-arrested) nuclei per well, 72 h; higher = more G0 arrest; settings: reference: sequence is the full UniProt precursor, the tested protein was the secreted form or ectodomain
MCF7 = assay: as above; settings: reference: sequence is the full UniProt precursor, the tested protein was the secreted form or ectodomain
[1] = protein concentration 0.0357143 µM
[2] = protein concentration 0.357143 µM
[3] = protein concentration 0.03125 µM
[4] = protein concentration 0.3125 µM
[5] = protein concentration 0.0225 µM
[6] = protein concentration 0.01025 µM
[7] = protein concentration 0.1025 µM
[8] = protein concentration 0.00825 µM
[9] = protein concentration 0.0825 µM
[10] = protein concentration 0.0214725 µM
[11] = protein concentration 0.214725 µM
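Note: secreted proteins added to cultured cells, EdU pulse at the end, nuclei found by Hoechst imaging, EdU status from nuclear versus surrounding ring intensity ratio, PBS as neutral control.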

MMVVLLGATTLVLVAVAPWVLSAAAGGKNLKSPQKVEVDIIDDNFILRWNRSDESVGNVTFSFDYQKTGMDNWIKLSGCQNITSTKCNFSSLKLNVYEEIKLRIRAEKENTSSWYEVDSFTPFRKAQIGPPEVHLEAEDKAIVIHISPGTKDSVMWALDGLSFTYSLVIWKNSSGVEERIENIYSRHKIYKLSPETTYCLKVKAALLTSWKIGVYSPVHCIKTTVENELPPPENIEVSVQNQNYVLKWDYTYANMTFQVQWLHAFLKRNPGNHLYKWKQIPDCENVKTTQCVFPQNVFQKGIYLLRVQASDGNNTSFWSEEIKFDTEIQAFLLPPVFNIRSLSDSFHIYIGAPKQSGNTPVIQDYPLIYEIIFWENTSNAERKIIEKKTDVTVPNLKPLTVYCVKARAHTMDEKLNKSSVFSDAVCEKTKPGNTSKIWLIVGICIALFALPFVIYAAKVFLRCINYVFFPSLKPSSSIDEYFSEQPLKNLLLSTSEEQIEKCFIIENISTIATVEETNQTDEDHKKYSSQTSQDSGNYSNEDESESKTSEELQQDFV
percentage of EdU-negative (hTERT-HMEC; [1]): 4.55 ± 0.7% | percentage of EdU-negative (hTERT-HMEC; [2]): 5.5 ± 0.82% | percentage of EdU-negative (MCF7; [1]): 23.4 ± 0.79% | percentage of EdU-negative (MCF7; [2]): 31.7 ± 1.5%

MLPLWTLSLLLGAVAGKEVCYERLGCFSDDSPWSGITERPLHILPWSPKDVNTRFLLYTNENPNNFQEVAADSSSISGSNFKTNRKTRFIIHGFIDKGEENWLANVCKNLFKVESVNCICVDWKGGSRTGYTQASQNIRIVGAEVAYFVEFLQSAFGYSPSNVHVIGHSLGAHAAGEAGRRTNGTIGRITGLDPAEPCFQGTPELVRLDPSDAKFVDVIHTDGAPIVPNLGFGMSQVVGHLDFFPNGGVEMPGCKKNILSQIVDIDGIWEGTRDFAACNHLRSYKYYTDSIVNPDGFAGFPCASYNVFTANKCFPCPSGGCPQMGHYADRYPGKTNDVGQKFYLDTGDASNFARWRYKVSVTLSGKKVTGHILVSLFGNKGNSKQYEIFKGTLKPDSTHSNEFDSDVDVGDLQMVKFIWYNNVINPTLPRVGASKIIVETNVGKQFNFCSPETVREEVLLTLTPC
percentage of EdU-negative (hTERT-HMEC; [3]): 4.88 ± 0.32% | percentage of EdU-negative (hTERT-HMEC; [4]): 5.95 ± 0.29% | percentage of EdU-negative (MCF7; [3]): 22.6 ± 0.74% | percentage of EdU-negative (MCF7; [4]): 24.8 ± 1.1%

MRPLAGGLLKVVFVVFASLCAWYSGYLLAELIPDAPLSSAAYSIRSIGERPVLKAPVPKRQKCDHWTPCPSDTYAYRLLSGGGRSKYAKICFEDNLLMGEQLGNVARGINIAIVNYVTGNVTATRCFDMYEGDNSGPMTKFIQSAAPKSLLFMVTYDDGSTRLNNDAKNAIEALGSKEIRNMKFRSSWVFIAAKGLELPSEIQREKINHSDAKNNRYSGWPAEIQIEGCIPKERS
percentage of EdU-negative (hTERT-HMEC; [5]): 4.35 ± 0.59% | percentage of EdU-negative (hTERT-HMEC; protein concentration 0.225 µM): 6.31 ± 1.2% | percentage of EdU-negative (MCF7; [5]): 27.2 ± 0.94% | percentage of EdU-negative (MCF7; protein concentration 0.225 µM): 24.7 ± 0.92%

MDPKLGRMAASLLAVLLLLLERGMFSSPSPPPALLEKVFQYIDLHQDEFVQTLKEWVAIESDSVQPVPRFRQELFRMMAVAADTLQRLGARVASVDMGPQQLPDGQSLPIPPVILAELGSDPTKGTVCFYGHLDVQPADRGDGWLTDPYVLTEVDGKLYGRGATDNKGPVLAWINAVSAFRALEQDLPVNIKFIIEGMEEAGSVALEELVEKEKDRFFSGVDYIVISDNLWISQRKPAITYGTRGNSYFMVEVKCRDQDFHSGTFGGILHEPMADLVALLGSLVDSSGHILVPGIYDEVVPLTEEEINTYKAIHLDLEEYRNSSRVEKFLFDTKEEILMHLWRYPSLSIHGIEGAFDEPGTKTVIPGRVIGKFSIRLVPHMNVSAVEKQVTRHLEDVFSKRNSSNKMVVSMTLGLHPWIANIDDTQYLAAKRAIRTVFGTEPDMIRDGSTIPIAKMFQEIVHKSVVLIPLGAVDDGEHSQNEKINRWNYIEGTKLFAAFFLEMAQLH [Q96KN2]
percentage of EdU-negative (hTERT-HMEC; [3]): 5.23 ± 0.23% | percentage of EdU-negative (hTERT-HMEC; [4]): 5.9 ± 0.65% | percentage of EdU-negative (MCF7; [3]): 24.9 ± 0.15% | percentage of EdU-negative (MCF7; [4]): 23 ± 2.2%

MAAPSGGWNGVGASLWAALLLGAVALRPAEAVSEPTTVAFDVRPGGVVHSFSHNVGPGDKYTCMFTYASQGGTNEQWQMSLGTSEDHQHFTCTIWRPQGKSYLYFTQFKAEVRGAEIEYAMAYSKAAFERESDVPLKTEEFEVTKTAVAHRPGAFKAELSKLVIVAKASRTEL [Q969H8]
percentage of EdU-negative (hTERT-HMEC; [3]): 4.64 ± 1% | percentage of EdU-negative (hTERT-HMEC; [4]): 5.57 ± 0.44% | percentage of EdU-negative (MCF7; [3]): 25.7 ± 1.8% | percentage of EdU-negative (MCF7; [4]): 24.42 ± 0.17%

MARVLKAAAANAVGLFSRLQAPIPTVRASSTSQPLDQVTGSVWNLGRLNHVAIAVPDLEKAAAFYKNILGAQVSEAVPLPEHGVSVVFVNLGNTKMELLHPLGRDSPIAGFLQKNKAGGMHHICIEVDNINAAVMDLKKKKIRSLSEEVKIGAHGKPVIFLHPKDCGGVLVELEQA [Q96PE7]
percentage of EdU-negative (hTERT-HMEC; [5]): 5.15 ± 0.63% | percentage of EdU-negative (hTERT-HMEC; protein concentration 0.225 µM): 6.08 ± 0.26% | percentage of EdU-negative (MCF7; [5]): 23.93 ± 0.19% | percentage of EdU-negative (MCF7; protein concentration 0.225 µM): 23.1 ± 1.4%

MSRELAPLLLLLLSIHSALAMRICSFNVRSFGESKQEDKNAMDVIVKVIKRCDIILVMEIKDSNNRICPILMEKLNRNSRRGITYNYVISSRLGRNTYKEQYAFLYKEKLVSVKRSYHYHDYQDGDADVFSREPFVVWFQSPHTAVKDFVIIPLHTTPETSVKEIDELVEVYTDVKHRWKAENFIFMGDFNAGCSYVPKKAWKNIRLRTDPRFVWLIGDQEDTTVKKSTNCAYDRIVLRGQEIVSSVVPKSNSVFDFQKAYKLTEEEALDVSDHFPVEFKLQSSRAFTNSKKSVTLRKKTKSKRS
percentage of EdU-negative (hTERT-HMEC; [6]): 4.824 ± 0.022% | percentage of EdU-negative (hTERT-HMEC; [7]): 5.74 ± 0.076% | percentage of EdU-negative (MCF7; [6]): 28.5 ± 1.3% | percentage of EdU-negative (MCF7; [7]): 27 ± 2%

MKQKMMARLLRTSFALLFLGLFGVLGAATISCRNEEGKAVDWFTFYKLPKRQNKESGETGLEYLYLDSTTRSWRKSEQLMNDTKSVLGRTLQQLYEAYASKSNNTAYLIYNDGVPKPVNYSRKYGHTKGLLLWNRVQGFWLIHSIPQFPPIPEEGYDYPPTGRRNGQSGICITFKYNQYEAIDSQLLVCNPNVYSCSIPATFHQELIHMPQLCTRASSSEIPGRLLTTLQSAQGQKFLHFAKSDSFLDDIFAAWMAQRLKTHLLTETWQRKRQELPSNCSLPYHVYNIKAIKLSRHSYFSSYQDHAKWCISQKGTKNRWTCIGDLNRSPHQAFRSGGFICTQNWQIYQAFQGLVLYYESCK [Q8WZ79]
percentage of EdU-negative (hTERT-HMEC; [8]): 5.48 ± 0.48% | percentage of EdU-negative (hTERT-HMEC; [9]): 15.5 ± 1.6% | percentage of EdU-negative (MCF7; [8]): 28.9 ± 1.8% | percentage of EdU-negative (MCF7; [9]): 32.3 ± 0.53%

MIHGRSVLHIVASLIILHLSGATKKGTEKQTTSETQKSVQCGTWTKHAEGGIFTSPNYPSKYPPDRECIYIIEAAPRQCIELYFDEKYSIEPSWECKFDHIEVRDGPFGFSPIIGRFCGQQNPPVIKSSGRFLWIKFFADGELESMGFSARYNFTPDPDFKDLGALKPLPACEFEMGGSEGIVESIQIMKEGKATASEAVDCKWYIRAPPRSKIYLRFLDYEMQNSNECKRNFVAVYDGSSSVEDLKAKFCSTVANDVMLRTGLGVIRMWADEGSRNSRFQMLFTSFQEPPCEGNTFFCHSNMCINNTLVCNGLQNCVYPWDENHCKEKRKTSLLDQLTNTSGTVIGVTSCIVIILIIISVIVQIKQPRKKYVQRKSDFDQTVFQEVFEPPHYELCTLRGTGATADFADVADDFENYHKLRRSSSKCIHDHHCGSQLSSTKGSRSNLSTRDASILTEMPTQPGKPLIPPMNRRNILVMKHSYSQDAADACDIDEIEEVPTTSHRLSRHDKAVQRFCLIGSLSKHESEYNTTRV [Q8TDF5]
percentage of EdU-negative (hTERT-HMEC; [10]): 4.64 ± 0.48% | percentage of EdU-negative (hTERT-HMEC; [11]): 7.76 ± 0.38% | percentage of EdU-negative (MCF7; [10]): 23.53 ± 0.037% | percentage of EdU-negative (MCF7; [11]): 26.76 ± 0.058%

MAGPWTFTLLCGLLAATLIQATLSPTAVLILGPKVIKEKLTQELKDHNATSILQQLPLLSAMREKPAGGIPVLGSLVNTVLKHIIWLKVITANILQLQVKPSANDQELLVKIPLDMVAGFNTPLVKTIVEFHMTTEAQATIRMDTSASGPTRLVLSDCATSHGSLRIQLLHKLSFLVNALAKQVMNLLVPSLPNLVKNQLCPVIEASFNGMYADLLQLVKVPISLSIDRLEFDLLYPAIKGDTIQLYLGAKLLDSQGKVTKWFNNSAASLTMPTLDNIPFSLIVSQDVVKAAVAAVLSPEEFMVLLDSVLPESAHRLKSSIGLINEKAADKLGSTQIVKILTQDTPEFFIDQGHAKVAQLIVLEVFPSSEALRPLFTLGIEASSEAQFYTKGDQLILNLNNISSDRIQLMNSGIGWFQPDVLKNIITEIIHSILLPNQNGKLRSGVPVSLVKALGFEAAESSLTKDALVLTPASLWKPSSPVSQ [Q8TDL5]
percentage of EdU-negative (hTERT-HMEC; [5]): 5.17 ± 0.22% | percentage of EdU-negative (hTERT-HMEC; protein concentration 0.225 µM): 8.84 ± 0.099% | percentage of EdU-negative (MCF7; [5]): 25.5 ± 0.91% | percentage of EdU-negative (MCF7; protein concentration 0.225 µM): 30.5 ± 0.65%

MESSRVRLLPLLGAALLLMLPLLGTRAQEDAELQPRALDIYSAVDDASHEKELIEALQEVLKKLKSKRVPIYEKKYGQVPMCDAGEQCAVRKGARIGKLCDCPRGTSCNSFLLKCL
percentage of EdU-negative (hTERT-HMEC; [5]): 5.12 ± 0.53% | percentage of EdU-negative (hTERT-HMEC; protein concentration 0.225 µM): 5.36 ± 0.64% | percentage of EdU-negative (MCF7; [5]): 28.1 ± 1.3% | percentage of EdU-negative (MCF7; protein concentration 0.225 µM): 24.6 ± 0.93%

MFCPLKLILLPVLLDYSLGLNDLNVSPPELTVHVGDSALMGCVFQSTEDKCIFKIDWTLSPGEHAKDEYVLYYYSNLSVPIGRFQNRVHLMGDILCNDGSLLLQDVQEADQGTYICEIRLKGESQVFKKAVVLHVLPEEPKELMVHVGGLIQMGCVFQSTEVKHVTKVEWIFSGRRAKEEIVFRYYHKLRMSVEYSQSWGHFQNRVNLVGDIFRNDGSIMLQGVRESDGGNYTCSIHLGNLVFKKTIVLHVSPEEPRTLVTPAALRPLVLGGNQLVIIVGIVCATILLLPVLILIVKKTCGNKSSVNSTVLVKNTKKTNPEIKEKPCHFERCEGEKHIYSPIIVREVIEEEEPSEKSEATYMTMHPVWPSLRSDRNNSLEKKSGGGMPKTQQAF [Q86YT9]
percentage of EdU-negative (hTERT-HMEC; [5]): 4.64 ± 0.38% | percentage of EdU-negative (hTERT-HMEC; protein concentration 0.225 µM): 5.35 ± 1.2% | percentage of EdU-negative (MCF7; [5]): 23.21 ± 0.041% | percentage of EdU-negative (MCF7; protein concentration 0.225 µM): 24.8 ± 2.1%
